Entries after “also recorded” stand apart in the source; their conditions may differ.
B1: recombinant murine Cxcl10 protein: murine recombinant Cxcl10 (PeproTech), a cytokine belonging to the CXC chemokine family (protein, UniProt P17515 22-98, looked up)
C-X-C motif chemokine 10: IPLARTVRCNCIHIDDGPVRMRAIGKLEIIPASLSCPRVEIIATMKKNDEQRCLNPESKTIKNLMKAFSQKRSKRAP

What was measured:
[1] = system: NF1-null iNPCs, iGRPs and iOPCs; experiment: In vitro PD0325901 treatment of iNPCs, iGRPs and iOPCs (Ki67, cleaved caspase-3 immunocytochemistry); type: cell-based, human; conditions: 10 nM, 24 h
Method: (§1) Twenty 4-week-old Rag1^−/− mice of both sexes harboring NF1-null iNPC-LGGs 1 month post-injection were intraperitoneally injected either with 10% DMSO in saline or with 5 mg/kg/day PD0325901 (Sigma-Aldrich), 6 days a week, for a total of four weeks. Treated mice were collected for histopathologic analysis. For in vitro experiments, iNPCs, iGRPs and iOPCs were treated with 10 nM PD0325901 for 24 h prior to immunocytochemical analysis.
(§2) Immunocytochemistry was performed on hiPSCs, iNPCs, iGRPs, iOPCs and astrocytes using the primary antibodies described in Additional file 1: Table 51. […] Appropriate secondary Alexa-Fluor-conjugated secondary antibodies diluted to 1:200 were employed and bis-benzamide (Hoechst) was used as a nuclear counterstain. Cells were mounted with Immu-mount (Fisher) and imaged on a Leica DMi1 fluorescent microscope using the Leica LAS X software, as per manufacturer's instructions.

NF1-null iNPC-LGGs = experiment: PD0325901 treatment of Rag1-/- mice harboring NF1-null iNPC-LGGs; type: in vivo, mouse; conditions: 5 mg/kg/day intraperitoneal, 6 days a week, four weeks, from 1 mpi
Method: as §1
Injected mice were transcardially perfused at 1, 3 or 6 months post-injection, initially with Ringer's solution, and then followed by ice-cold 4% paraformaldehyde. Whole mouse brains were harvested, post-fixed in 4% PFA and dehydrated in 70% ethanol. Dehydrated samples were then paraffin-embedded and serially sectioned (5 μm). Hematoxylin and eosin (H&E), as well as antibody immunohistochemical staining, were performed using the primary antibodies, Vectastain ABC kit (Vector Laboratories) and appropriate biotinylated secondary antibodies provided in TABLE 1.
Immunostaining was performed using the primary antibodies listed in TABLE 1 with appropriate Alexa Fluor-conjugated secondary antibodies. Bis-benzamide (Hoechst) was used as a nuclear counterstain.

NF1-null iNPCs [2] = experiment: Cleaved caspase-3+ cells (programmed cell death) in NF1-null iNPCs after recombinant Cxcl10; type: cell-based, human; conditions: for increase in programmed cell death (cleaved caspase-3+ cells): NF1-null iNPCs
Method: as §2
(§3) Cxcl10 cDNA (Sino Biological) and lentiviral packaging vectors, or KIAA1549:BRAF adenoviral DNA, were transfected in HEK293T cells using Fugene HD (Promega) following the manufacturer's instructions. Viral supernatants were collected 48 h post-transfection, filtered, and used to directly infect iNPCs and iGRPs for 24 h. Cxcl10-GFP expression was confirmed by Western blotting as previously described. KIAA1549:BRAF-infected cells were puromycin-selected for 2 weeks prior to further expansion. Infected cells were used for intracranial injections in Rag1^−/− neonatal mice. For cell proliferation, cell death and differentiation analyses, iNPCs were treated with 25 or 100 pg/mL of murine recombinant Cxcl10 (PeproTech) for 24 h. Each experiment was performed a minimum of three times on independently generated samples.

NF1-null iNPCs [3] = experiment: Direct cell count of NF1-null iNPCs after recombinant Cxcl10; type: cell-based, human; conditions: for decrease in cell number (direct cell count): NF1-null iNPCs
Method: RAS activity (ThermoFisher), cAMP (Fisher) detection, BrdU proliferation assays (Roche) and direct cell counting were performed according to the manufacturer's instructions. Cxcl10 (Ray Biotech) ELISA assays were performed according to the manufacturer's instructions. Each assay was performed using a minimum of three independently generated biological replicates.
as §3

NF1-null iNPCs [4] = experiment: GFAP+ astrocytic differentiation of NF1-null iNPCs after recombinant Cxcl10; type: cell-based, human; conditions: for increase in GFAP+ astrocytic differentiation: NF1-null iNPCs
Method: as §2, §3

[5] = relative to vehicle-treated LGGs
[6] = 25 pg/mL recombinant Cxcl10, 24 h
[7] = 100 pg/mL recombinant Cxcl10, 24 h
[8] = range over ectopic Cxcl10 expression or 25 or 100 pg/mL recombinant Cxcl10 (FIG. 19A)
[9] = range over ectopic Cxcl10 expression and recombinant Cxcl10 treatments (FIG. 19B)

Molecule	apoptosis (cleaved caspase-3) [1]	cell proliferation (Ki67) [1]	presence of Ku80+ iNPC-LGGs after treatment (NF1-null iNPC-LGGs)	tumor cell apoptosis (TUNEL+ cells) (NF1-null iNPC-LGGs; [5])	tumor cell proliferation (Ki67+ cells) (NF1-null iNPC-LGGs; [5])	increase in programmed cell death (cleaved caspase-3+ cells) (NF1-null iNPCs [2]; [6])	increase in programmed cell death (cleaved caspase-3+ cells) (NF1-null iNPCs [2]; [7])	percent of cleaved caspase-3+ cells increases (NF1-null iNPCs [2]; [8])	decrease in cell number (direct cell count) (NF1-null iNPCs [3]; [6])	decrease in cell number (direct cell count) (NF1-null iNPCs [3]; [7])	NF1-null iNPC cell numbers decrease (direct cell count) (NF1-null iNPCs [3]; [8])	increase in GFAP+ astrocytic differentiation (NF1-null iNPCs [4]; [6])	increase in GFAP+ astrocytic differentiation (NF1-null iNPCs [4]; [7])	differentiated GFAP+ cells undergoing apoptosis (cleaved caspase-3+) (NF1-null iNPCs [4]; [9])	share of total cells undergoing apoptosis (cleaved caspase-3+) that are GFAP+ (NF1-null iNPCs [4]; [9])
O=C(NOC[C@H](O)CO)c1ccc(F)c(F)c1Nc1ccc(I)cc1F [PD0325901]	increased hiPSC-LGG cell apoptosis; also recorded: increases apoptosis	reduced proliferation; also recorded: decreased cell proliferation; also recorded: decreases proliferation	still detectable	increased hiPSC-LGG cell apoptosis; also recorded: increased tumor cell apoptosis	reduced tumor cell proliferation; also recorded: decreased	–	–	–	–	–	–	–	–	–	–
B1	–	–	–	–	–	4.6 fold	20.5 fold	8.3-20.5 fold	9%	13%	9-20%	8.2 fold	20.5 fold	95-100%	83.3-88.8%

— patent publication US20230189773A1, “ENGINEERED CELLS, ANIMAL MODELS, AND USES THEREOF FOR MODELING LOW GRADE GLIOMA (LGG)” (Washington University, priority 2021, published 2023)
